From the RNAGym collection of RNA variant scans (doi:10.1073/pnas.2313332121)

B1: TPR t1 (parent)
chain: GACCAAUCUGCCCUCAGAGCUCGAGAACAUCUUCGGAUGCAGAGGAGGCAGGCUUCGGUGGCGCGAUAGCGCCAACGUCCUCAACCUCCAAUGCAUCCCACCACAUGAUGAUGCCUGAAGAGCCUUGGUUUUUUG

Variants of: B1
Assay: polymerase ribozyme fitness, log enrichment relative to wild type (log ratio); higher = more active; in vitro selection for triplet polymerase activity
Procedure, shortened: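 Fitness compares each genotype's enrichment to that of the wild type on a logarithmic scale, averaging replicates with inverse-variance weights. The logarithm is base 2. Enrichment came from Illumina sequencing of input and output libraries after one triplicate round of in vitro selection, which included frozen incubation at −7 °C, of PCR-built, transcribed mutant libraries of each subunit of a heterodimeric triplet polymerase ribozyme. Only genotypes with ≥10 input reads and ≥1 read per output were kept.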

Variant | polymerase ribozyme fitness (log ratio)
G42A U55G | -1.85
G42A A90C U96A G117U | -5.05
A41U G42C | -2.5
G42C U55A G71C G113U G120U C123U U125A | -5.08
G42U G93C | -2.17
A41U G45A U55C | -1.85
A41U G69C G127U | -3.25
G42C A84U | -1.87
G42U C94G U96C | -4.23
G42U G77C C80U A84U C97U | -3.47
A41U C114A | -3.03
A41U C114G | -2.94
G42A A43U U96A | -2.41
G42C G47U A108C G110A U112A | -7.49
G42U C73G | -2.39
G42U C53U U59G C89A C124A | -0.557
G42C G61A C124A U125A | 0.506
G42A C70A C85U | -4.88
G42U G45U C88G G110A | -3.96
G42A U130C U133A | -1.86
A41U G52C U87A | -1.57
G42A A91G | -2.47
G42U A84U C115A G127A | -4.77
G42U G58C U87C | -0.174

Variant | polymerase ribozyme fitness (log ratio)
A41U C89U U116A | -4.32
G42U C53U C82U G93A C99A G107U C114G C123G U125A G127A | -4.42
G42A U129G | -2.39
G42U A50C U92C | -2.73
G42U A46U C62U | -2.07
A41U G48U C104A A121G G122A | -3.77
G42U C53G G69U | -0.375
G42U U54G A68G | -5.22
G42U U59C U87A A100U | -4.01
G42C A91G G113U | -3.17
A41U G61A C82G G120A U125G | -2.63
G42C C89U C101G | -2.74
G42U G77U U92A U106A | -2.9
G42U G45A | -1.25
G42U G71C A111C U130C | -3.75
A41U G57U C82U | -1.52
G42A G63C | -2.96
G42C G48C C79A | -6.14
G42U G63A C82U | -2.86
G42U G44U G45A U54G C89G | -2.57
G42A G61A C115A | -1.62
G42A U126G | -3.7
G42C A66G C89G | -4.07
G42C G63C C73A | -3.92

Variant | polymerase ribozyme fitness (log ratio)
G42U U55A C56G G77C C115A | -1.05
G42C U96G C124U | -0.43
A41U G69U G93C | -0.276
G42U G47C | -5.66
G42U G47U | -1.51
G42C C49A C56U U96A | -3.16
G42A C82A A91C C115G | -4.43
G42A C98U | -2.55
G42U C115G | -1.8
G42U C115U | -1.27
A41U G110A A121C G122A G128U | -5.21
G42A U106A G120U U132A | -2.41
G42A U81C U129G | -4.71
G42C U55A G113U G120U C123U U125A | -3.47
A41U G120C | -0.366
G42U U54A G110U U133G | -4.37
G42U U55G U125A | -1.45
G42C C49G C56U | -2.41
G42A A83C U112A | -1.42
A41U G51A G57C C82A U96G C114U U116A | -7.09
G42U G45A G63C | -1.98
G42A U55A U112G C115A | -2.35
G42C U54G C88A C102A | -5.41
G42U G69C C123A | -3.23

Variant | polymerase ribozyme fitness (log ratio)
G42A G110U | -3.64
G42C A74U U96G C124U | -1.27
G42U G58C C82G U87C | -2.71
G42U U54A A91U A121C C124A | 0.144
G42A G44A A50C C115A | -4.02
A41U G44C G47U C70U A84C A108U G117U | -6.98
G42A G61C | -3.18
G42A G61A | -1.27
G42U G71C | -3.19
G42A G44U C99A A100U U109A | -5.27
G42U C72G C99A A103C C123U | -6.66
G42A C62U A83C U112A | -2.06
G42A C73G C79A U130A | -5.42
G42C C85G | -3.39
G42C G71A C72A C115U | -5.81
G42C G44A G69C C94U C114A | -5.06
G42A G48U | -2.42
G42U A43C | -1.95
G42A G45C C123U | -1.9
G42C G77A | -1.99
G42U G71A C86U U96A C97A U116G | -6.66
G42C A50U | -3.32
G42C A50C | -2.31
A41U G45U C53G U55G G63U | -6.72

Variant | polymerase ribozyme fitness (log ratio)
G42A C89U G117A | -3.19
A41U U126G | -3.66
A41U G45A | -1.87
G42U C56U | -1.29
G42U C56G | -1.08
G42U A50C C62U A84G C114G | -4.07
G42U A100C U116C | -4.27
G42A C94G | -3.05
G42A G61U A83U | -2.11
G42C G57U U126G | -3.49
G42U U81C C85G U126G | -6.41
A41U U116C C124U U130A | -3.9
G42C U116C U125A | -3.61
A41U G58C C62A G117C U126A G128A | -7.88
A41U C80A | -5.17
G42U G110A | -2.74
G42A G69C | -3.78
G42U C94U G113A | -2.64
G42A C89U | -1.16
G42U G69U C115A | -1.45
G42U G71U C101U | -1.49
G42U G128A | -3.14
G42C G122A | -2.41
G42A G122A | -2.59

Variant | polymerase ribozyme fitness (log ratio)
A41U G117C | -4.87
G42U C72G G117U | -4.8
G42C G113C | -2.1
G42A G47U G57U G58U | -3.58
G42A G58A | -1.77
G42C G128C | -4.09
G42C G128A | -3.12
G42U C56A C64U | -2.46
G42A G135U | -2.72
G42A A46G G120U | -2.64
G42U G77A C88A U92C | -3.21
G42A G48A C80A U96A | -6.92
G42U U109G | -5.53
G42U G60A G128C | -3.97
G42A C53U C88A C114A G127U | -5.52
G42A C64U | -2.45
G42U C89U | -0.954
A43C A46C U96A U106A U116G C123A | -7.89
G42U C73A C114G | -1.95
G42U C53G C56A | -1.17
G42A G45C C49G U96A | -3.8
G42C U109A | -5.54
G42U A46U | -1.99
G42U C72A U96C | -1.5

Variant | polymerase ribozyme fitness (log ratio)
A41U C73G A103C | -6.66
G42A G44A C62U G63A U112G G120C | -5.64
G42C C124A | -0.168
G42U U92A | -2.25
A41U G45C C72A U129C | -2.79
G42U G60A C101U A121G | 0.281
G42U C56G C73A | -4.4
A41U U109G | -6.03
G42U C49A C53A U59C C82U | -2.94
A41U U78A U112C | 0.679
G42U G71A A100U | -4.8
G42A A46C G63C U106A | -3.82
G42A A46U G48A A66C A118U | -5.21
G42A G47C C82U A84G | -3.91
A41U C73G | -3.06
G42A U54C G57A | -3.66
G42C C79U C82G C85G G110C | -5.74
G42C G61U G120A | -0.458
G42C G44U U112A | -1.44
A41U G57C | -1.91
G42A G52C | -2.26
G42C G61C C79U A90C C115G G120U G122A | -4.78
G42A G113U | -3
